Laboratory results as given in patent publication US20240067706A1 (CENTER FOR EXCELLENCE IN MOLECULAR CELL SCIENCE CHINESE …, published 2024).

Legend:
[1] = biological target: T1, SARS-CoV-2 S1 protein (SARS-CoV-2, UniProt P0DTC2 16-685); assay: ELISA, coated protein
T1 construct: domain: S1

[2] = biological target: T2, SARS-CoV S protein expressed on the cell surface (SARS-CoV, UniProt P59594 14-1255); assay: flow cytometry on CHO cells transfected with S protein
T2 construct: whole, on cells

B1: fully human monoclonal antibody 76E1 (antibody, V domains shown)
VH: EVQLVESGGGVVQPGGSLRLSCEASGFSFKDYGMHWIRQTPGKGLEWISRISGDTRGTSYVDSVKGRFIVSRDNSRNSLFLQMNSLRSEDTALYYCAALVIVAAGDDFDLWGQGTVVTVSS
VL: QSALTQPLSVSGSPGQSVTISCTGSSSDIGSYNFVSWYRQYPGKAPKVMIYEVNKRPSGVPVRFSGSKSGNTASLTVSGLQHEDEADYYCCSYGGRNNLIFGGGTKLTVL
notes: also called 76E1 antibody
Question: Does B1 bind [1]?
Answer: no binding (tested: 10 µg/ml initial test concentration)

Question: Does B1 bind [2]?
Answer: binds
